This assay has as its target TL1A monomer mutant. Put plainly: method not stated (row 'Binds monomer mutant').

In patent publication US12466890 one finds Kd data, which are given here for one substance.

One may read the Kd as the equilibrium constant for the complex coming apart. Read a high Kd as weaker binding. With Comparator antibody 2 (MK-7240), the Kd was determined as 0.13 nM.
